According to the supplement of paper PMC10065799, “High-throughput profiling of sequence recognition by tyrosine kinases and SH2 domains using bacterial peptide display” (eLife, 2023):

Tests used:
[1] = tested on: AncSZ; assay: phosphorylation enrichment, bacterial display (enrichment ratio); higher = better substrate or ligand; peptides without Tyr show the background
[2] = biological target: EPHB1 (UniProt P54762); assay: as above
[3] = biological target: EPHB2 (UniProt P29323); assay: as above
[4] = biological target: FGFR1 (UniProt P11362); assay: as above
[5] = biological target: FGFR3 (UniProt P22607); assay: as above
[6] = tested on: Fer (mouse); assay: as above
[7] = biological target: Fes (UniProt P07332); assay: as above
[8] = biological target: Fyn (UniProt P06241); assay: as above
[9] = biological target: Hck (UniProt P08631); assay: as above
[10] = biological target: Jak2 (UniProt O60674); assay: as above
[11] = biological target: MERTK (UniProt Q12866); assay: as above
[12] = tested on: c-Abl (mouse); assay: as above
[13] = tested on: c-Src; assay: as above
[14] = biological target: Grb2 SH2 (UniProt P62993); assay: SH2 binding enrichment of the phosphorylated peptide, bacterial display (enrichment ratio); higher = better substrate or ligand; peptides without Tyr show the background
[15] = biological target: SHP2-C SH2; assay: as above
[16] = biological target: c-Src SH2; assay: as above
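Wherever SH2 binding enrichment of the phosphorylated peptide, bacterial display is given: peptide library displayed on the E. coli surface as eCPX fusions, selected cells deep-sequenced, score is each peptide's frequency after selection divided by its frequency in the input.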
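Wherever phosphorylation enrichment, bacterial display is given: 11-residue human phosphosite peptides and single-mutation variants displayed on the E. coli surface, counted by deep sequencing, each peptide's frequency after selection divided by its frequency in the unselected input library; frequency after pTyr selection over input frequency; kinase dosed for 20-30% of maximal phosphorylation in three min.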

Sequence of Jak2 (O60674 whole entry, looked up): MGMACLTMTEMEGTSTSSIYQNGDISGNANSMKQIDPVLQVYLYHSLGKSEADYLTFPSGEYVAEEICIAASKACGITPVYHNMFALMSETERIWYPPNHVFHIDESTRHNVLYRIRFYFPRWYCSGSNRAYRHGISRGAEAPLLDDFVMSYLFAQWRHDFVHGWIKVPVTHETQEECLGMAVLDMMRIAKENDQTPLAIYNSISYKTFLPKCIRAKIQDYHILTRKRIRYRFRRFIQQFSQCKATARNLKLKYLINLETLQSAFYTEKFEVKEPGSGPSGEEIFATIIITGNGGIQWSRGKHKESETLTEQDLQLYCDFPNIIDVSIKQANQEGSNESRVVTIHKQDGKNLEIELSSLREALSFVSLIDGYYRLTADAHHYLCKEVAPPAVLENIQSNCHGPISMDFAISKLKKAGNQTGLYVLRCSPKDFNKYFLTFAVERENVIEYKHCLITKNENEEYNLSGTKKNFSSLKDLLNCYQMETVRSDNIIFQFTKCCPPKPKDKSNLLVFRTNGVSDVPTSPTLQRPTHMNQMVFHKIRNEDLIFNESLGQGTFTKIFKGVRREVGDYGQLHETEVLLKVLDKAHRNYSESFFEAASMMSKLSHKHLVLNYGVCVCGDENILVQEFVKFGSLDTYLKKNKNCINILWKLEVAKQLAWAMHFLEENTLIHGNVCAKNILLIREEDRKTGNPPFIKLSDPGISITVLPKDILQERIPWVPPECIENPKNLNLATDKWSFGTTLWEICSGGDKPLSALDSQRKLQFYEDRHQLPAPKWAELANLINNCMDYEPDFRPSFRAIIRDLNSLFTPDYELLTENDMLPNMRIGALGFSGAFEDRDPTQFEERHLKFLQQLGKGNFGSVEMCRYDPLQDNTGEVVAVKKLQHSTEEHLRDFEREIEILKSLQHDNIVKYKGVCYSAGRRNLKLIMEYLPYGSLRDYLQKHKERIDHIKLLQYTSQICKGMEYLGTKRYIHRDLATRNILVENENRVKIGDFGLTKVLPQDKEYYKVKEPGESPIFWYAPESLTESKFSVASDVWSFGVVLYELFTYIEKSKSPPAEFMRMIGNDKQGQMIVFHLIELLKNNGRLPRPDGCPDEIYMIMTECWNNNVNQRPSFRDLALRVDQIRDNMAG
Sequence of MERTK (Q12866 whole entry, looked up): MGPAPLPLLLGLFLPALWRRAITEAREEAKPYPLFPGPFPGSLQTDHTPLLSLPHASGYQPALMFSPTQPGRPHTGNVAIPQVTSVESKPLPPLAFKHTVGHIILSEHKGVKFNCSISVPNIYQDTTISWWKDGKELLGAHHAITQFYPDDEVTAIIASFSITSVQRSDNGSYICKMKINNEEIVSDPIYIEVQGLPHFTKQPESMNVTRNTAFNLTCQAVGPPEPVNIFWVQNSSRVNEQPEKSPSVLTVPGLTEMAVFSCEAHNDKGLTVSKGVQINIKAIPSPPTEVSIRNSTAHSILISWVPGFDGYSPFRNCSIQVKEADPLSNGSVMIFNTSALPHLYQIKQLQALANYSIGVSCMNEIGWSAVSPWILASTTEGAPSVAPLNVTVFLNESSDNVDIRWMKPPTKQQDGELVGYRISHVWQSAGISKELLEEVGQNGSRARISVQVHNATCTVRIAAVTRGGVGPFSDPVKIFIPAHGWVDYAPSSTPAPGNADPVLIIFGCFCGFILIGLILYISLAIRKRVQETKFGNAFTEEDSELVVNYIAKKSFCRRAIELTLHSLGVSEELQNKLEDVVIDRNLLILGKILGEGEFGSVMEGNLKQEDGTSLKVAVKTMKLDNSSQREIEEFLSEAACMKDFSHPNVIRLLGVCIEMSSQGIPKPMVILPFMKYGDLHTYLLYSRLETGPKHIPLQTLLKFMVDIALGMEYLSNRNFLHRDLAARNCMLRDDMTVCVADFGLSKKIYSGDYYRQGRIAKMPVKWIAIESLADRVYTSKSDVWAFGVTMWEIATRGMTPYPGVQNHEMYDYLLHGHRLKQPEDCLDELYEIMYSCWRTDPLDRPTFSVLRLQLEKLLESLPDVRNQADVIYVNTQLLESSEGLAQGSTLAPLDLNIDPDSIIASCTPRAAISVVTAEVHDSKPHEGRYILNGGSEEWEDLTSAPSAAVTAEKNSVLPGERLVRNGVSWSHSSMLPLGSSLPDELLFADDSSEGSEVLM
Sequence of Fyn (P06241 whole entry, looked up): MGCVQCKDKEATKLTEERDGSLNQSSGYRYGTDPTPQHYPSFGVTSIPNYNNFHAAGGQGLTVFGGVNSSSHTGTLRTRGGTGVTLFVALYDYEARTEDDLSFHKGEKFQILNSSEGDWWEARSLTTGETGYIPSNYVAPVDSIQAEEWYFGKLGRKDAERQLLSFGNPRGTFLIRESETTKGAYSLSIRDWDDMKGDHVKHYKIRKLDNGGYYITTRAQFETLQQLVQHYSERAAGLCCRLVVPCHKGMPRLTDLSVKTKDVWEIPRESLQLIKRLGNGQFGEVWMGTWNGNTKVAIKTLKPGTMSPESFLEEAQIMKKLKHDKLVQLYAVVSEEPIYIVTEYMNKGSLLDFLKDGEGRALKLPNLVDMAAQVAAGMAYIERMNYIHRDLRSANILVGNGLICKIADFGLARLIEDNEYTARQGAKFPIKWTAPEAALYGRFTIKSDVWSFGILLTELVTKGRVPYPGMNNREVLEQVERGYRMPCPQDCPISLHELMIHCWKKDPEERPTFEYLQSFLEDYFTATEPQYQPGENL
Sequence of EPHB2 (P29323 whole entry, looked up): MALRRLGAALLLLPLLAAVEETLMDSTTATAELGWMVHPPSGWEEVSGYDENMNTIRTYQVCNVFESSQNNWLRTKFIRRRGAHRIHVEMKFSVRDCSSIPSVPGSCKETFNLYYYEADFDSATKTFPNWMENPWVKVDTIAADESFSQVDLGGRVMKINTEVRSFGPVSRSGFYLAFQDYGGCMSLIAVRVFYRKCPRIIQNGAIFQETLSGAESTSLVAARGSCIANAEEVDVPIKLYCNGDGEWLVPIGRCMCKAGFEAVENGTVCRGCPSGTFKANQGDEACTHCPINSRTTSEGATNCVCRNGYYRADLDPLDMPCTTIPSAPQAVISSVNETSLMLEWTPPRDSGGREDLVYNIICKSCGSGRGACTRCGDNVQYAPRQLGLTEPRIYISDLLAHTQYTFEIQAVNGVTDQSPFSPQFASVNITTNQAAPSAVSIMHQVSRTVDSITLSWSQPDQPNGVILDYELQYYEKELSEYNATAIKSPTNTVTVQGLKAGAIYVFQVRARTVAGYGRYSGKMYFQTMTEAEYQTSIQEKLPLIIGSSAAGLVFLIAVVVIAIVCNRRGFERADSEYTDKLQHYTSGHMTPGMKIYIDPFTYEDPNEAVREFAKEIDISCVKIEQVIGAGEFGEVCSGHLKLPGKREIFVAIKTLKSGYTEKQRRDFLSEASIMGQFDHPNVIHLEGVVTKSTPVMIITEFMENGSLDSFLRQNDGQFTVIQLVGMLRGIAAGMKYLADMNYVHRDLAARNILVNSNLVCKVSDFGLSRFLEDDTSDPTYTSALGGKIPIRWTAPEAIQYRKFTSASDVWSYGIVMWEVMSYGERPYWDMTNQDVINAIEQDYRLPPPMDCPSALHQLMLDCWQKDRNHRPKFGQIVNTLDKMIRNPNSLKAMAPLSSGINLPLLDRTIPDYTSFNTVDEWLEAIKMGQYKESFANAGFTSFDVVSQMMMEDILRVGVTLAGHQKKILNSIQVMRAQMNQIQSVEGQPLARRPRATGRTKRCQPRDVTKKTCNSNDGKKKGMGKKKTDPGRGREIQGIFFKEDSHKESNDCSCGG
Sequence of Hck (P08631 whole entry, looked up): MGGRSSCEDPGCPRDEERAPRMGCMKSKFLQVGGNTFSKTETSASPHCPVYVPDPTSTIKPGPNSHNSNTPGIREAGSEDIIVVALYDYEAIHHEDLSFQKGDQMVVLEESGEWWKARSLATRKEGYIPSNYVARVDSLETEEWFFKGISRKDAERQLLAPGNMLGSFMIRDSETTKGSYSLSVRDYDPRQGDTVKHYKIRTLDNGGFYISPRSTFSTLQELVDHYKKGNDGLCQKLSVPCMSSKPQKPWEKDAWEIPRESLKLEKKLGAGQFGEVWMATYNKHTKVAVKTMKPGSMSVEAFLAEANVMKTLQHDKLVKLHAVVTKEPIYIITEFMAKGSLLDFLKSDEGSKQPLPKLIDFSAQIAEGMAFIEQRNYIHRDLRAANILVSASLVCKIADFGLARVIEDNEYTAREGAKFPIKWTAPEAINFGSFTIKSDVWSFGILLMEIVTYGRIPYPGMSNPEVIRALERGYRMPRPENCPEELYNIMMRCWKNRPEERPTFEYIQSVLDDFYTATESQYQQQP
Sequence of Fes (P07332 whole entry, looked up): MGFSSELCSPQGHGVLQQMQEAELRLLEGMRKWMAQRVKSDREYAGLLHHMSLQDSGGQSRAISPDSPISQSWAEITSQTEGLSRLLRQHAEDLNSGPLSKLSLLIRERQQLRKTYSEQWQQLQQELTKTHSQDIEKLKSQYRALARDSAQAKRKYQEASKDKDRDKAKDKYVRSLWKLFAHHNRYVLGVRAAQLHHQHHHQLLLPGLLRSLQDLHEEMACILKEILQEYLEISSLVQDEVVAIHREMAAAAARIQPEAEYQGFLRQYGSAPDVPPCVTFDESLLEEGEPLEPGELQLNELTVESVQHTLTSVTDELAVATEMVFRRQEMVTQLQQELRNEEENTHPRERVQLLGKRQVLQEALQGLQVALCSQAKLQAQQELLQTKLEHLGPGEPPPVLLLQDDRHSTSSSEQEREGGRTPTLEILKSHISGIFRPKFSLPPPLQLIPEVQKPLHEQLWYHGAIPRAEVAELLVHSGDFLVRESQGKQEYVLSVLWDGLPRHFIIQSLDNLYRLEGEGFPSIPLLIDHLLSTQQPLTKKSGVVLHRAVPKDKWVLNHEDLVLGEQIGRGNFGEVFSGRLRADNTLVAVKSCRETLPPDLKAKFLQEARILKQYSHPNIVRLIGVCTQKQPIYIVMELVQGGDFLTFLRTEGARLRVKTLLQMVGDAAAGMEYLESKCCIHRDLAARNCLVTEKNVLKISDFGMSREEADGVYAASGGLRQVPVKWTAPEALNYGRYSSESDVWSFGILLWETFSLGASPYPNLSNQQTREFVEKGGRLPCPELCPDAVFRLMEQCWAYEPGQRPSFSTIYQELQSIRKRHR

SH2 binding enrichment [14]	SH2 binding enrichment [15]	SH2 binding enrichment [16]	Sequence	phosphorylation enrichment [1]	phosphorylation enrichment [2]	phosphorylation enrichment [3]	phosphorylation enrichment [4]	phosphorylation enrichment [5]	phosphorylation enrichment [6]	phosphorylation enrichment [7]	phosphorylation enrichment [8]	phosphorylation enrichment [9]	phosphorylation enrichment [10]	phosphorylation enrichment [11]	phosphorylation enrichment [12]	phosphorylation enrichment [13]
0.813	0.679	0.479	FQRLRYIKQLG [SAMHD1_Y146]	0.8	0.483	0.592	0.42	0.509	0.42	0.898	0.399	0.454	0.652	0.472	0.617	0.473
0.881	0.54	0.524	QSSALYEDHYL [ASS1_Y83_R86H]	1.24	5.41	2.07	0.477	0.702	18.5	1.18	0.904	1.58	1.18	1.33	0.734	1.14
1.07	1.09	0.707	YGGLRYGYGVL [KRTAP20-2_Y13]	0.671	0.415	0.608	0.559	0.518	0.448	0.741	1.25	1.42	0.658	0.497	0.536	1.64
0.971	0.879	0.825	DHCNQYEQQKM [CHD7_Y75_Y72C]	0.842	0.545	0.714	0.424	0.682	0.499	0.823	0.534	0.499	0.699	0.443	0.661	0.541
0.835	0.733	0.745	DGQVNYEELVQ [CALM1_Y139_F142L]	1.47	1.04	0.826	0.819	0.735	0.639	1.25	0.704	0.594	1.43	0.659	0.781	0.614
1.23	1.01	0.951	HFPFQCHRQLF [F12_Y53_Y53C_YF]	1.76	0.875	0.758	0.745	1.4	0.587	1.64	0.535	1.07	1.1	0.885	1.09	0.692
0.954	0.843	2.67	GTPVMYTYDEY [COL10A1_Y623]	1.26	0.708	0.978	0.743	0.893	0.575	1.09	1.76	1.01	1.04	0.804	0.68	2.42
0.789	0.73	0.459	DKATEYIQFVR [MAX_Y70_M74V_YF]	0.74	0.503	0.53	0.519	0.551	0.465	0.705	0.442	0.636	0.55	0.41	0.574	0.556
0.573	0.687	0.427	RRAKGYPIDLF [ITGB2_Y125_YF]	4.21	0.566	0.605	1.06	0.677	1.08	0.993	0.563	0.57	1.64	0.878	0.771	1.25
0.934	0.543	0.455	SFKNKYGMVAQ [APOB_Y276_YF]	0.42	0.302	0.354	0.335	0.39	0.335	0.574	0.353	0.354	0.43	0.341	0.465	0.375
1.01	0.929	0.468	VLDCHYPEDEV [C1QBP_Y188]	1.22	0.589	0.725	0.596	0.88	0.632	1.27	0.464	0.629	1.3	0.556	0.919	0.571
0.93	0.886	0.559	EPDSLYGCGRG [ATM_Y2019_G2023R]	0.933	0.534	0.45	0.399	0.576	0.574	0.926	2.05	4.04	0.858	0.419	0.885	2.52
0.979	1	0.665	QSHKVYVQHLL [POR_Y604]	0.919	0.444	0.572	0.867	0.977	0.742	0.971	0.908	0.858	0.798	0.594	0.806	0.618
0.665	1.28	0.75	LREKVYASLEA [RXRA_Y397]	1.63	0.823	0.862	0.84	0.944	0.892	1.9	6.2	2.9	1.21	2.22	5.68	6.94
